Patent US20220072157

Target: C3b, P01024
Sequence (P01024 whole entry, looked up): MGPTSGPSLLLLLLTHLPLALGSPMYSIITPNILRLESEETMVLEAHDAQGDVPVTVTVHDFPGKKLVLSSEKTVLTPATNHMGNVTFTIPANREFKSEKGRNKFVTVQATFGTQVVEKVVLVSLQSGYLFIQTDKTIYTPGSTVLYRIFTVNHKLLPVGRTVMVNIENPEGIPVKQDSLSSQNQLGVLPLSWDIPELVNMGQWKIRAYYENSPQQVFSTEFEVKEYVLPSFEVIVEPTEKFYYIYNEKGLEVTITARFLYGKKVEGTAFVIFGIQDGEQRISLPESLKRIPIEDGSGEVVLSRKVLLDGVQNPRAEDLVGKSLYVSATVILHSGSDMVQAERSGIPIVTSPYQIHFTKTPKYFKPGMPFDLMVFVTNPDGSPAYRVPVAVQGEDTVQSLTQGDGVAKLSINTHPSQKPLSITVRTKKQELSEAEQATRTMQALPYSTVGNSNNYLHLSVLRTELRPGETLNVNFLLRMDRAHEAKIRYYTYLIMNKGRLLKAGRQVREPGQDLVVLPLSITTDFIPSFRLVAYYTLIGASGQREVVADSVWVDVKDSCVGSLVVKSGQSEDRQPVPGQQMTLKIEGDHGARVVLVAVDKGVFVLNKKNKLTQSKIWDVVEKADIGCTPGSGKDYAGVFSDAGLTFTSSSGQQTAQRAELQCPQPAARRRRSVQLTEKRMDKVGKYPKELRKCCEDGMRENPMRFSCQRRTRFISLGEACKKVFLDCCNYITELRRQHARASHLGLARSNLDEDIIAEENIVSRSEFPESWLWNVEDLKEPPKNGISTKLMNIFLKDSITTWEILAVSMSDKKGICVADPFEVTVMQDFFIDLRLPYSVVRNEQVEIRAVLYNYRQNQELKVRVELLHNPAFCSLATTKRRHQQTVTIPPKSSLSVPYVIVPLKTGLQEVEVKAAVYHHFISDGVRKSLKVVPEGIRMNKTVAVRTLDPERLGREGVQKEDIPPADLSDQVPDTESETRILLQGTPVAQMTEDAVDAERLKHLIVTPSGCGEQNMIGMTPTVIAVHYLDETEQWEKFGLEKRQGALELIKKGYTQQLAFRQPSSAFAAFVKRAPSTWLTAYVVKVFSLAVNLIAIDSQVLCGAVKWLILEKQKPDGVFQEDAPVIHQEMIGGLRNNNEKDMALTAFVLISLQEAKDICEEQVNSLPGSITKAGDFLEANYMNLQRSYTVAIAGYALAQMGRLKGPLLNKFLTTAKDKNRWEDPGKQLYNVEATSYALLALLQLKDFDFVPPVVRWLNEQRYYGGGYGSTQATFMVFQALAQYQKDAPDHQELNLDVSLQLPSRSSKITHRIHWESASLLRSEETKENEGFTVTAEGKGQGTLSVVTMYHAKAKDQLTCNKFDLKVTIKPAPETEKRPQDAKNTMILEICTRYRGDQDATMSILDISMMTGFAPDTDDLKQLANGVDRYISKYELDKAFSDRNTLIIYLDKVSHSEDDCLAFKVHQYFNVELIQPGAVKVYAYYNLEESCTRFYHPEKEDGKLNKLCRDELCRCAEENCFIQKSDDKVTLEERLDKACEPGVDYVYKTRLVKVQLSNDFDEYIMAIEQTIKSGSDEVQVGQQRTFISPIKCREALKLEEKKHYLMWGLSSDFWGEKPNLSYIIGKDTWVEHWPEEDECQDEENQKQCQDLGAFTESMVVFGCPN

B1: Complement Factor I (CFI) (protein)
chain: KVTYTSQEDLVEKKCLAKKYTHLSCDKVFCQPWQRCIEGTCVCKLPYQCPKNGTAVCATNRRSFPTYCQQKSLECLHPGTKFLNNGTCTAEGKFSVSLKHGNTDSEGIVEVKLVDQDKTMFICKSSWSMREANVACLDLGFQQGADTQRRFKLSDLSINSTECLHVHCRGLETSLAECTFTKRRTMGYQDFADVVCYTQKADSPMDDFFQCVNGKYISQMKACDGINDCGDQSDELCCKACQGKGFHCKSGVCIPSQYQCNGEVDCITGEDEVGCAGFASVTQEETEILTADMDAERRRIKSLLPKLSCGVKNRMHIRRKRIVGGKRAQLGDLPWQVAIKDASGITCGGIYIGGCWILTAAHCLRASKTHRYQIWTTVVDWIHPDLKRIVIEYVDRIIFHENYNAGTYQNDIALIEMKKDGNKKDCELPRSIPACVPWSPYLFQPNDTCIVSGWGREKDNERVFSLQWGEVKLISNCSKFYGNRFYEKEMECAGTYDGSIDACKGDSGGPLVCMDANNVTYVWGVVSWGENCGKPEFPGVYTKVANYFDWISYHVGRPFISQYNV
cleavage of C3b to iC3b quantified by ELISA (cofactor assay; CFI and C3b fixed, CFH or FHL1 titrated): a minimum functional CFI:CFH/FHL1 molar ratio is 1:2
